B1: Ribonuclease HI, P0A7Y4 (parent)
chain: MLKQVEIFTDGSCLGNPGPGGYGAILRYRGREKTFSAGYTRTTNNRMELMAAIVALEALKEHCEVILSTDSQYVRQGITQWIHNWKKRGWKTADKKPVKNVDLWQRLDAALGQHQIKWEWVKGHAGHPENERCDELARAAAMNPTLEDTGYQVEV

Variants of: B1
Conditions: Escherichia coli (strain K12); pH 5.5; 25 °C; GdnHCl; Fluorescence; Sodium acetate 20 mM; NaCl 0.1 M; reversible: yes; structure 2RN2; whole UniProt chain shown

Variant | ddG of mutation (higher = less stable) [kcal/mol] | denaturant m value [kcal/mol/M] | denaturant midpoint (higher = more stable) [M] | unfolding free energy [kcal/mol]
H114A | 2.63 | 4.23 | 1.57 | 6.63
H127A | 0.58 | 4.98 | 1.74 | 8.68
H62A | -0.38 | 5.19 | 1.86 | 9.64
H124A | -0.48 | 5.36 | 1.82 | 9.74

— FireProtDB (doi:10.1111/j.1432-1033.1991.tb16033.x)
